Reference: the Human Domainome abundance scans (Beltran et al. 2025)

B1: Dynamin-binding protein, residues 242 to 304; numbered along this chain, Q6XZF7 (parent)
chain: EEPGTYGVALYRFQALEPNELDFEVGDKIRILATLEDGWLEGSLKGRTGIFPYRFVKLCPDTR

Variants of: B1
Assay: abundance fitness (aPCA) (normalised: wild type 0, dead -1); higher = more abundant; growth selection in yeast, the domain comes from the species named
Details: Homo sapiens

Abundance fitness: each site, then its substitutions
S43: F -0.226 | L -0.368 | E 0.219 | Y -0.085 | W -0.393 | N -0.308 | C -0.245 | A -0.106 | R -0.346 | P -0.945 | M -0.127 | K -0.148 | V -0.326 | H -0.373 | I -0.539 | Q -0.133 | D -0.32
G49: I -0.59 | D -0.574 | T -0.829 | S -0.504 | P -1.08 | Y -0.805 | C -0.422 | F -0.735 | V -0.782 | W -0.601 | N -0.499 | M -0.711 | L -0.887 | H -0.807
C59: D -0.198 | L -0.049 | K -0.086 | G -0.225 | N -0.393 | E -0.109 | F 0.006 | I 0.038 | H -0.227
V56: I -0.141 | F -0.525 | L -0.412 | P -0.334 | A -0.521 | S -0.719 | D -0.716 | Y -0.535 | N -0.711 | H -0.696 | W -0.826 | T -0.594 | R -0.887 | G -0.729 | C -0.864 | Q -0.664
K57: C -0.406 | S -0.088 | T -0.167 | H -0.136 | F -0.697 | E -0.6 | A -0.318 | I -0.576 | G -0.58 | W -0.677 | L -0.562 | V -0.637 | Y -0.411 | R -0.041 | D -0.257 | P -0.746 | Q -0.062
I50: D -0.91 | Y -0.533 | P -0.973 | R 0.138 | C -0.275 | Q -0.093 | F -0.598 | G -0.823 | K 0.153 | E -0.341 | N -0.43 | A -0.379 | M -0.298 | S -0.541 | H -0.681 | L -0.383 | W -0.693 | T -0.306
K45: H 0.081 | Y -0.347 | T -0.791 | F -0.32 | C -0.429 | G -0.113 | D 0.104 | Q -0.157 | S -0.296 | A -0.115 | M -0.317 | V -0.728 | P -0.429 | I -0.696 | L -0.502 | E 0.013 | N 0.037 | R -0.168
P52: L -0.567 | D -0.817 | V -0.816 | F -0.826 | S -0.85 | T -0.783 | W -0.583 | N -0.767 | M -0.401 | I -0.741 | A -0.68 | Y -0.569 | Q -0.912 | C -0.7 | G -0.534 | R -0.855 | H -0.734 | K -0.794
Y53: D 0.227 | P 0.37 | I 0.048 | W 0.108 | C 0.203 | T 0.223 | L 0.077 | K 0.251 | V 0.263 | R 0.211 | A 0.338 | F -0.079 | H -0.006 | S 0.329 | M 0.265 | E 0.282 | Q 0.154 | N 0.138
L44: Y -0.393 | R -0.367 | D -0.385 | I -0.133 | A -0.399 | T -0.416 | M -0.58 | N -0.567 | H -0.425 | G -0.868 | S -0.313 | C -0.159 | W -0.506 | P -0.575 | V 0.012
G42: R -0.84 | H -0.282 | M -0.987 | V -0.575 | S -0.846 | C -0.859 | K -0.892 | N -0.891 | I -0.707 | W -0.506 | Y -0.924 | D -0.578 | F -0.745 | P -0.872 | A -0.702 | T -0.997 | L -0.45
L40: K -1.11 | I -0.244 | Q -0.312 | Y -0.259 | W -0.473 | G -0.383 | P -0.642 | V 0.092 | C 0.113 | M -0.074 | T -0.394 | S -0.325 | N -0.784 | R -0.627 | A 0.18 | F -0.393
L58: I -0.055 | T -0.301 | N -0.914 | M -0.032 | F -0.186 | R -0.12 | D -0.366 | V -0.064 | Y -0.473 | K -0.55 | Q -0.656 | P -0.379 | A -0.594 | C -0.409 | E -0.708 | S -0.64
W39: P -0.738 | T -0.492 | S -0.56 | Q -0.285 | M -0.057 | Y -0.135 | L -0.184 | R -0.144 | N -0.406
E41: M 0.073 | H -0.072 | N -0.527 | P -0.669 | C -0.115 | L -0.256 | R -0.019 | Y -0.274 | W 0.056 | K 0.017 | S -0.116 | D -0.732 | G -0.76 | I -0.465 | Q -0.064
F51: S -0.794 | D -0.862 | P -0.524 | V -0.224 | E -0.854 | N -0.791 | T -0.681 | W -0.59 | H -0.792 | L -0.492 | Y -0.497 | C -0.748 | A -0.919 | R -0.655 | K -0.623 | I -0.752 | G -0.85
R47: V -0.477 | Q -0.588 | E 0.018 | C -0.578 | W -0.676 | T -0.678 | Y -0.282 | D -0.743 | M -0.689 | A -0.552 | P -1.09 | L -0.453 | H -0.283 | G -0.604 | K 0.115 | F -0.713
T48: A -0.699 | F -0.49 | K 0.112 | R -0.105 | M -0.916 | I -0.214 | C -0.286 | L -0.436 | N -0.453 | W -0.977 | D -0.818 | G -0.685 | P -0.867 | Q -0.203 | S -0.351 | V -0.075
G46: A -0.647 | W -0.725 | M -0.769 | S -0.474 | I -0.711 | V -0.6 | C -0.719 | Q -0.753 | F -0.687 | H -0.73 | R -0.612 | E -0.473 | K -0.757 | D -0.444 | P -0.611 | Y -0.802 | N -0.326 | L -0.749
R54: D -0.052 | Q -0.008 | Y -0.286 | S 0.046 | H 0.027 | T -0.24 | G -0.034 | L -0.544 | N 0.238 | W -0.292 | F -0.261 | E -0.057 | A -0.049 | C -0.373 | M -0.583 | I -0.545 | V -0.07 | P -0.525
F55: D -0.621 | W -0.374 | L -0.126 | Q -0.774 | Y 0.079 | K -0.748 | N -0.399 | C -0.075 | E -0.67 | H -0.189 | S -0.348 | T -0.472 | R -0.621 | A -0.091 | V -0.614 | P -0.818
